Test results reported in patent US20260069728A1, “MULTI-TARGETING COMPOUND AND USE THEREOF” (Chengdu Shetai Medical Technology Co., Ltd., priority 2023, published 2026).
Like-named read-outs stand apart in the source and are kept apart here.

How the values were obtained:
[1] = Stability of radioligands in PBS buffer (radio-HPLC); type: physicochemical
Description: The purpose of this experiment was to test the stability of the radioligands under buffer conditions simulating the physiological environment. This stability is a prerequisite for further animal experiments.
1. ^68Ga-SDYD01: ^68Ga-SDYD01 was added to PBS buffer (pH=7.4) and incubated at 37° C. The mixture samples were taken for radio-HPLC analysis after 0.5 hours, 1 hour, and 2 hours of incubation. The stability of ^68Ga-SDYD01 in PBS buffer: the radiochemical purities of ^68Ga-SDYD01 after incubation in PBS for 0.5 hours, 1 hour, and 2 hours were 98%, 97%, and 97%, respectively (FIG. 4).
2. ^177Lu-SDYD01: ^177Lu-SDYD01 was added to PBS buffer (pH=7.4) and incubated at 37° C. The mixture samples were taken for radio-HPLC analysis after 24 hours, 48 hours, and 120 hours of incubation. The stability of ^177Lu-SDYD01 in PBS buffer: the radiochemical purities of ^177Lu-SDYD01 after incubation in PBS for 24 hours, 48 hours, and 120 hours were 97%, 96%, and 94%, respectively (FIG. 5).
1. ^68Ga-SDYD02: ^68Ga-SDYD02 was added to PBS buffer (pH=7.4) and incubated at 37° C. The mixture samples were taken for radio-HPLC analysis after 0.5 hours, 1 hour, and 2 hours of incubation. The stability of ^68Ga-SDYD02 in PBS buffer: the radiochemical purities of ^68Ga-SDYD02 after incubation in PBS for 0.5 hours, 1 hour, and 2 hours were 96%, 95% and 93%, respectively (FIG. 10).
2. ^177Lu-SDYD02: ^177Lu-SDYD02 was added to PBS buffer (pH=7.4) and incubated at 37° C. The mixture samples were taken for radio-HPLC analysis after 24 hours, 48 hours, and 120 hours of incubation. The stability of ^177Lu-SDYD02 in PBS buffer: the radiochemical purities of ^177Lu-SDYD02 after incubation in PBS for 24 hours, 48 hours, and 120 hours were 95%, 91% and 87%, respectively (FIG. 11).
1. ^68Ga-SDYD05: ^68Ga-SDYD05 was added to PBS buffer (pH=7.4) and incubated at 37° C. The mixture samples were taken for radio-HPLC analysis after 0.5 hours, 1 hour, and 2 hours of incubation. The stability of ^68Ga-SDYD05 in PBS buffer: the radiochemical purities of ^68Ga-SDYD05 after incubation in PBS for 0.5 hours, 1 hour, and 2 hours were 98%, 96% and 95%, respectively (FIG. 16).
2. ^177Lu-SDYD05: ^177Lu-SDYD05 was added to PBS buffer (pH=7.4) and incubated at 37° C. The mixture samples were taken for radio-HPLC analysis after 24 hours, 48 hours, and 120 hours of incubation. The stability of ^177Lu-SDYD05 in PBS buffer: the radiochemical purities of ^177Lu-SDYD05 after incubation in PBS for 24 hours, 48 hours, and 120 hours were 97%, 96% and 96%, respectively (FIG. 17).
1. ^68Ga-SDYD06: ^68Ga-SDYD06 was added to PBS buffer (pH=7.4) and incubated at 37° C. The mixture samples were taken for radio-HPLC analysis after 0.5, 1, and 2 hours of incubation. The stability of ^68Ga-SDYD06 in PBS buffer: the radiochemical purities of ^68Ga-SDYD06 after incubation in PBS for 0.5 hours, 1 hour, and 2 hours were 96%, 94% and 93%, respectively (FIG. 22).
2. ^177Lu-SDYD06: ^177Lu-SDYD06 was added to PBS buffer (pH=7.4) and incubated at 37° C. The mixture samples were taken for radio-HPLC analysis after 24 hours, 48 hours, and 120 hours of incubation.
1. ^68Ga-SDYD03: ^68Ga-SDYD03 was added to PBS buffer (pH=7.4) and incubated at 37° C. The mixture samples were taken for radio-HPLC analysis after 0.5 hours, 1 hour, and 2 hours of incubation. The stability of ^68Ga-SDYD03 PBS in PBS buffer: the radiochemical purities of ^68Ga-SDYD03 after incubation in PBS for 0.5 hours, 1 hour, and 2 hours were 96%, 96% and 95%, respectively (FIG. 27).
2. ^177Lu-SDYD03: ^177Lu-SDYD03 was added to PBS buffer (pH=7.4) and incubated at 37° C. The mixture samples were taken for radio-HPLC analysis after 24 hours, 48 hours, and 120 hours of incubation. The stability of ^177Lu-SDYD03 in PBS buffer: the radiochemical purities of ^177Lu-SDYD03 after incubation in PBS for 24 hours, 48 hours, and 120 hours are 99%, 96% and 94%, respectively (FIG. 28). […]

[2] = Small animal PET imaging and biodistribution study; type: in vivo, NSG mice; details: NSG, mouse, in vivo, iv, 7.4 MBq, total radioactivity
Description: (§1) Eleven NSG mice bearing subcutaneous xenograft tumors (U87 MG cells), with tumor sizes approximately 150 mm^3, were used. The mice were intravenously injected via the tail vein with approximately 7.4 MBq of ^68Ga-labeled SDYD01, SDYD02, SDYD03. SDYD04, SDYD05, SDYD06, SDYD07, SDYD08 or SDYD07-1 compounds, or with ^[…]-labeled FAPI-04 or FAP2286 compounds as tracers. Micro PET/CT imaging was performed at 30 min, 60 min, and 120 min post-injection. Static images were acquired in 3D mode for 20 minutes. Reconstruction was performed using the OSEM3D/MAP method to obtain attenuation-corrected PET/CT fusion images.
(§2) NSG mice bearing subcutaneous xenograft tumors (U87 MG cells) were divided into 3 groups, with 11 mice in each group. They were intravenously injected via the tail vein with ^68Ga-labeled SDYD01, SDYD02, SDYD03. SDYD04, SDYD05, SDYD06. SDYD07, SDYD08, or SDYD07-1 compounds, or with ^68Ga-labeled FAPI-04 or FAP2286 compounds as tracers. Tumor-bearing mice injected with ^68Ga-labeled compounds SDYD01, SDYD02, SDYD03, SDYD04, SDYD05, SDYD06, FAPI-04, as well as 68Ga-labeled compounds FAPI-04 and FAP2286, were euthanized at 30 min. 60 min, and 120 min, respectively, for each group. Tumor-bearing mice injected with ^68Ga-labeled compounds SDYD07, SDYD08, and SDYD07-1 were euthanized at 30 min, 60 min, and 90 min, respectively, for each group. Blood, tumors, and other major organs and tissues were collected, weighed, and measured for radioactivity. After radioactive decay correction, the standardized uptake value (SUV) and percentage injected dose per gram of tissue (% ID/g) were calculated. In these figures, (a) represents the PET/CT imaging results, (b) represents the biodistribution results, and (c) represents the relative ratios of radioactive uptake in tumor versus normal tissues.

[3] = system: subcutaneous xenograft tumors (U87 MG cells); assay: Small animal PET imaging and biodistribution study; type: in vivo, NSG mice
Description: as §1, §2

[4] = absolute uptake value in the tumor

| Compound | stability in PBS buffer (in words) ([1]; PBS buffer pH=7.4, 37° C.) | tissue uptake at 0.5 h ([2]; 30 minutes post-injection, read-out: absolute uptake value in the tumor) [%ID/g] | tissue uptake at 1 h ([2]; 60 minutes post-injection, read-out: absolute uptake value in the tumor) [%ID/g] | radioactive uptake in the tumor sites (in words) ([3]; tail vein injection, U87 MG tumor-bearing NSG mice) | stability in PBS buffer (in words) [1] | tissue uptake at 0.5 h [2, 4] [%ID/g] | tissue uptake at 1 h [2, 4] [%ID/g] | radioactive uptake in the tumor sites (in words) ([3]; mouse, in vivo) | tissue uptake at 2 h [2, 4] [%ID/g] | radioactive uptake in non-target organs (in words) ([3]; mouse, in vivo) | target/non-target ratios (in words) ([3]; mouse, in vivo) | tumor uptake and tumor retention time, comparison (in words) ([3]; mouse, in vivo) |
| --- | --- | --- | --- | --- | --- | --- | --- | --- | --- | --- | --- | --- |
| CC(C)CC(CC(C)C)NC(=O)[C@H](Cc1cnc[nH]1)NC(=O)CNC(=O)C(NC(=O)[C@H](C)NC(=O)[C@H](Cc1c[nH]c2ccccc12)NC(=O)[C@H](CCC(N)=O)NC(=O)[C@@H](Cc1ccccc1)NC(=O)COCC(=O)Nc1ccc(CNC(=O)COCCOCCNC(=O)COCCOCCNC(=O)[C@H](CCCCNC(=O)CN2CCN(CC(=O)O)CCN(CC(=O)O)CCN(CC(=O)O)CC2)NC(=O)CCC(=O)N2CCN(CCCOc3ccc4nccc(C(=O)NCC(=O)N5CC(F)(F)C[C@H]5C#N)c4c3)CC2)cc1)C(C)C (single isomer, unassigned) [^68Ga-SDYD03, metal not drawn] | quite stable in PBS buffer | ≥ 10 | ≥ 10 | significant radioactive uptake in the tumor sites | – | – | – | – | – | – | – | – |
| CCCCCC(=O)N[C@@H]1CSCc2cc(CSCCNC(=O)COCCOCCNC(=O)COCCOCCNC(=O)CSC3CC(=O)N(CCC(=O)N[C@H](CCCCNC(=O)CN4CCN(CC(=O)O)CCN(CC(=O)O)CCN(CC(=O)O)CC4)C(=O)NCc4ccc(C(=O)NCCC[C@@H]5C(=O)N[C@@H](CCCNC(=N)N)C(=O)N[C@@H](Cc6ccc7ccccc7c6)C(=O)NCC(=O)N[C@H](Cc6ccc(O)cc6)C(=O)N5C)cc4)C3=O)cc(c2)CSC[C@@H](C(=O)O)NC(=O)[C@H](Cc2ccccc2)NC(=O)[C@H](CCC(N)=O)NC(=O)C([C@@H](C)O)NC(=O)[C@@H]2CCCN2C(=O)[C@@H]2CCCN2C1=O (single isomer, unassigned) [^68Ga-SDYD06, metal not drawn] | – | – | – | – | quite stable in PBS buffer | ≥ 10 | ≥ 10 | significant radioactive uptake in the tumor sites | – | – | – | – |
| CCCCCC(=O)N[C@@H]1CSCc2cc(CSCCNC(=O)[C@@H](CCCCNC(=O)CN3CCN(CC(=O)O)CCN(CC(=O)O)CCN(CC(=O)O)CC3)NC(=O)COCCOCCNC(=O)COCCOCCNC(=O)CCN3C(=O)CC(SCCNC(=O)CCC(=O)N[C@@H](CCCNC(=N)N)C(=O)N[C@@H](CCCNC(=N)N)C(=O)N[C@@H](Cc4ccc5ccccc5c4)C(=O)N[C@@H]4CSSC[C@@H](C(=O)N[C@@H](CCCNC(=N)N)C(N)=O)NC(=O)[C@H](CCCNC(N)=O)NC(=O)[C@H](CCCNC(=N)N)NC(=O)[C@H](Cc5ccc(O)cc5)NC(=O)[C@@H]5CCCN5C(=O)[C@H](CCCCN)NC(=O)[C@H](CCCCN)NC(=O)[C@H](CCCNC(N)=O)NC(=O)[C@H](Cc5ccc(O)cc5)NC4=O)C3=O)cc(c2)CSC[C@@H](C(=O)O)NC(=O)[C@H](Cc2ccccc2)NC(=O)[C@H](CCC(N)=O)NC(=O)C([C@@H](C)O)NC(=O)[C@@H]2CCCN2C(=O)[C@@H]2CCCN2C1=O (single isomer, unassigned) [^68Ga-SDYD02, metal not drawn] | – | – | – | – | quite stable in PBS buffer | ≥ 10 | ≥ 10 | significant radioactive uptake in the tumor sites | – | – | – | – |
| N#C[C@@H]1CC(F)(F)CN1C(=O)CNC(=O)c1ccnc2ccc(OCCCN3CCN(C(=O)[C@H](CCCCNC(=O)CCN4C(=O)CC(SCC(=O)NCCOCCOCCOCCOCCC(=O)NCCCC[C@@H]5NC(=O)[C@@H](Cc6ccc(O)cc6)NC(=O)[C@H](CC(=O)O)NC(=O)CNC(=O)[C@H](CCCNC(=N)N)NC5=O)C4=O)NC(=O)CCC(C(=O)O)N4CCN(CC(=O)O)CCN(CC(=O)O)CCN(CC(=O)O)CC4)CC3)cc12 (single isomer, unassigned) [^68Ga-SDYD07, metal not drawn] | – | – | – | – | quite stable in PBS buffer | ≥ 10 | ≥ 10 | significant radioactive uptake in the tumor sites | ~10 | significantly reduced at 60 minutes | significantly increased target/non-target ratios | higher tumor uptake and longer tumor retention time |
| CN1C(=O)[C@@H](Cc2ccc(O)cc2)NC(=O)CNC(=O)[C@H](Cc2ccc3ccccc3c2)NC(=O)[C@H](CCCNC(=N)N)NC(=O)[C@H]1CCCNC(=O)c1ccc(CNC(=O)[C@H](CCCCNC(=O)CN2CCN(CC(=O)O)CCN(CC(=O)O)CCN(CC(=O)O)CC2)NC(=O)CCC(=O)NCCOCCOCC(=O)NCCOCCOCC(=O)N2CCN(CCCOc3ccc4nccc(C(=O)NCC(=O)N5CC(F)(F)C[C@H]5C#N)c4c3)CC2)cc1 [^68Ga-SDYD05, metal not drawn] | – | – | – | – | quite stable in PBS buffer | ≥ 10 | ≥ 10 | significant radioactive uptake in the tumor sites | – | – | – | – |
